The values that follow come from paper PMC9477280 (PLoS Pathogens, 2022).

The chains are these.
B1: JVA-C9 (VHH)
VHH: TGGGLVQAGGSLRLSCVDSGRTFGDNAMGWFRQAPGKEREYVAAIGYNGDSTYYLNSVKGRFTISRDNAKNTLYLQMNSLQLEDTGVYICAAKTRVTTKEYDFWGQGTQVTVSS
notes: also called αTir-9; JVF-3 (vector name); not shown: thioredoxin, N-terminal, kept; E-tag, C-terminal, kept
B2: JVA-A1 (VHH)
VHH: SGGSVEAGDSLRLSCAASGRGFGDGALAWFRQAPGKEREYVAAVGHSGTDTYYADSVKGRFTISRDNAKNMGYLQMDSLRPDDTGVYYCALDLHLGQPGYDYWGQGTQVTVSS
notes: also called αTir-7; JVF-1 (vector name); not shown: thioredoxin, N-terminal, kept; E-tag, C-terminal, kept
B3: JVB-G8 (VHH)
VHH: TGGGLVQAGGSLRLSCVASGFTFNDYVLTWFRQAPGKGREGVASISPAFGNTFYADSVKGRFTITSDSAKKQVCLQMNNLKSEDTAVYFCAADPTVNFGPVLRAENYRHWGQGTQVTVSS
notes: also called αTir-3; JVG-3 (vector name); not shown: thioredoxin, N-terminal, kept; E-tag, C-terminal, kept
B4: JVC-E5 (VHH)
VHH: TGGGTVQAGSSLRLSCTASGFTFTDAAMGWFRQAPGKEREFVAAINWDSANKYYADSVKGRFTISRDNAKNTVYLEMTALKPEDTADYICAGDAKLGHVATSDVWRFWGQGTQVTVSS
notes: also called αTir-6; JVI-3 (vector name); not shown: thioredoxin, N-terminal, kept; E-tag, C-terminal, kept
B5: JVA-E10 (VHH)
VHH: SGGGLVQAGGSLRLSCVASGRTFSDYAMGWFRQAPGKEREFVAAISWNGGSTYYADSVKGRFTISRDNAKNTMYLQMNSLKSEDTAVYYCISEGRGLRQVKTATDWEYWGQGTQVTVSP
notes: also called αTir-13; JVF-12 (vector name); not shown: thioredoxin, N-terminal, kept; E-tag, C-terminal, kept
B6: JVB-G4 (VHH)
VHH: SGGGLVEAGGSLRLSCSASGRASGDGHLGWFGDGALAWFRQAPGKEREYVAAVGHSGTDTYYSDSVKGRFTISRDNAKSMGYLQMDNLRPDDTGIYYCALDLHLGQPGYDYWGQGTQVIVSS
notes: also called αTir-2; JVG-2 (vector name); not shown: thioredoxin, N-terminal, kept; E-tag, C-terminal, kept
B7: JVC-C6 (VHH)
VHH: SGGGLVQAGGSLRLSCAASGVTFVDYATGWFRQAPGKEREGIACISNGASGSFVVNSVKGRFTTSTDNAKNTAYLQMNDLKPEDTATYYCALLGRTGGHCTDPNEYSYWGQGTQVTVSS
notes: also called αTir-4; JVI-1 (vector name); not shown: thioredoxin, N-terminal, kept; E-tag, C-terminal, kept
B8: JVA-C8 (VHH)
VHH: SGGGLVQAGGSLRLSCAASGFTFVDYGIAWVRQAPGKEREGVSCVSTSNRSQWYADSVKGRFTISSDNAKNTVYLQMDNLKPEDTAVYYCTRIDVGDNCRDGGGYRGQGTQVTISS
notes: also called αTir-8; JVF-2 (vector name); not shown: thioredoxin, N-terminal, kept; E-tag, C-terminal, kept
B9: JVA-F6 (VHH)
VHH: SGGGLVQAGDSLRLSCVTSGRSFSEAAMGWFRQAPGKERELMTSIGWNGDRTYYADSVKGRFTISRDNAKNTVYLQMNGLTPNDTAVYYCAAAVRASKGYEYWGQGTQVTVSS
notes: also called αTir-11; JVF-7 (vector name); not shown: thioredoxin, N-terminal, kept; E-tag, C-terminal, kept
B10: JVB-C6 (VHH)
VHH: TGGGLVQPGGSLTLSCAASGFSITENAMGWARQVPGKGLEWVSLVYSGGNTYYAESIEGRFTISRDNAKNTVYLRMTSLKPEDTGVYYCAAREAVRVAGPPADVWGQGTQVTVSS
notes: also called αTir-1; JVG-1 (vector name); not shown: thioredoxin, N-terminal, kept; E-tag, C-terminal, kept
B11: JVA-G1 (VHH)
VHH: SGGGLAQAGGSLKLSCVASGFTFADYAIGWFRQAPGKEREGVACISNSVGSTYYSDSVKGRVTISSDNVKKTVYLQMNSLKPEDTAFYYCALIDHGMNCRNSNGIHYWGKGTLVTVSS
notes: also called αTir-14; JVF-14 (vector name); not shown: thioredoxin, N-terminal, kept; E-tag, C-terminal, kept
B12: JVC-D10 (VHH)
VHH: TGGLVQTGDSLTLSCVVSGRGFCDWAMAWFRQAPGKEREKVSAIGWSGQDTYYSEPAKGRFTISRDNAKNTVWLRMTNLKSEDTAVYYCAAATRAYADYDYWGQGTQVTVSS
notes: also called αTir-5; JVI-2 (vector name); not shown: thioredoxin, N-terminal, kept; E-tag, C-terminal, kept
B13: JVA-D11 (VHH)
VHH: SGGGLVQAGGSLRLSCAASGFTFNDYAKAWFRRAPGKEREGISAISSMGESTFYADSVKGRFTISSDSAKNTVYLQMNSLKPEDTAVYYCAADPTVKWGHVLREENYDYWGQGTQVTVVS
notes: also called αTir-12; JVF-8 (vector name); not shown: thioredoxin, N-terminal, kept; E-tag, C-terminal, kept
B14: JVA-D4 (VHH)
VHH: TGGGLAQAGGSLRLSCATSGFTFADYAIGWFRQAPGKEREGVACISTSDNGQYSADSVKGRFTISKDNAKKTVYLQMNSLKPDDTAIYYCHLIDVGSNCRKGKDDGFWGQGTQVTVSS
notes: also called αTir-10; JVF-4 (vector name); not shown: thioredoxin, N-terminal, kept; E-tag, C-terminal, kept
B15: JXE-B1 (VHH)
VHH: TGGGLVQAGDSLRLSCAASSGRNFSNYATGWFRQAPGKEQEFVASISRSGRSTYYADSAKGRFTISRDNARNTVYLQMNSLKPEDTADYYCAAHETQWPNGLGWVRGFYDLWGQGTQVTVSS
notes: also called JXK-1 (vector name); not shown: thioredoxin, N-terminal, kept; E-tag, C-terminal, kept
B16: JWU-H4 (VHH)
VHH: TGGGSVQPGGSLRLSCAPSGFSLAYYGVGWFRQAPGKEREALACISRFGDDTYYADSAKGRFTVSRDNAKNTVYLEMNNLKPEDTGVYYCAAGWVVVTDESCGSGDAYNYWGRGTQVTVSS
notes: also called JXA-5 (vector name); not shown: thioredoxin, N-terminal, kept; E-tag, C-terminal, kept
B17: JWU-F3 (VHH)
VHH: SGGGLVQPGGSLRLTCVSSLSDFRLTNMAWYRQTPGSERDVVAGISPNGITSYHASVQDRFNISRDNARKTLFLQMNSLKPEDSGVYYCNIRWGSLLPWGQGTQVTVSP
notes: also called JXA-1 (vector name); not shown: thioredoxin, N-terminal, kept; E-tag, C-terminal, kept
B18: JXF-C4 (VHH)
VHH: SGGGLVQAGGSLRLSCVAYGRTANTFKEYAMGWFRHNPGEDHEFVGGISQNGDEAYFDDSVKGRFTPSRDNAKNTMYLQMNSLRPEDTAAYYCVAQRSSERLVGDMYSAMDSWGKGTLVTVST
notes: also called αEspA-4; JXM-15 (vector name); not shown: thioredoxin, N-terminal, kept; E-tag, C-terminal, kept
B19: JXF-H9 (VHH)
VHH: SGGGLAQTGGSLRLSCAASGFRLEYYAVGWFRQAPGKEREGVSCLSGSDGSTYNAEFAKGRFTISRDDAKNTVYLLMNSLKPEDTAVYYCAVAGPSDYQCDLGTRWYHRWGQGTVVTVSA
notes: also called αEspA-3; JXM-12 (vector name); not shown: thioredoxin, N-terminal, kept; E-tag, C-terminal, kept
B20: JYB-H6 (VHH)
VHH: TGGGLVQPGGSLRLSCVASGFILDAYTIGWFRQAPGKEREGVASINGSGFSTNYADSVKGRFTISRDNAKNTVWLQMNSLKPEDTAVYYCAAALGLLTPRLESTPFDDWGQGTQVTVSS
notes: also called αEspA-9; JYE-5 (vector name); not shown: thioredoxin, N-terminal, kept; E-tag, C-terminal, kept
B21: JXF-D7 (VHH)
VHH: SGGGLVQTGGSLRLSCSASGFALEYYAVGWFRQAPGKEREGVSCFSGSDGSKFHAQFVKGRFTISLDKEKNTVDLTMNNLKPEDTAVYYCAVAGPSDHQCDLGMTWYHRWGQGTQVTVSS
notes: also called αEspA-1; JXM-6 (vector name); not shown: thioredoxin, N-terminal, kept; E-tag, C-terminal, kept
B22: JYB-B1 (VHH)
VHH: TGGGLVQAGGSLRLSCAISGFSLGDYAIGWFRQAPEKEREGVAFSGSLGNTYYPDSMKGRFTISRDDAENAVYLEMKNLKPEDTAVYRCTSGGTFDAVVLGLSTYWGQGTQVTVSS
notes: also called αEspA-5; JYE-1 (vector name); not shown: thioredoxin, N-terminal, kept; E-tag, C-terminal, kept
B23: JYB-D1 (VHH)
VHH: TGGGLVQAGGSLRLSCAASGNTFSYTAMAWFRQAPGKQRELVARISSGRGPTKYADSVKGRFTISRDNTLNTVWLQMNDLKPEDTAVYFCNTLKYSGESSYIAGDSWGQGTQVTVSS
notes: also called αEspA-7; JYE-3 (vector name); not shown: thioredoxin, N-terminal, kept; E-tag, C-terminal, kept
B24: JXF-D8 (VHH)
VHH: SGGALVQPGGSLRLSCAASGINLDYYAIGWFRQAPGKERKGVSCISHVDDDRIYYSDSVKGRFTISRDNAKNTVYLQMNSLEPEDTAVYYCATAGPSDYPCDLELWTYRRWGQGTQVTVSS
notes: also called αEspA-2; JXM-8 (vector name); not shown: thioredoxin, N-terminal, kept; E-tag, C-terminal, kept
B25: JYB-B8 (VHH)
VHH: TGGGLVQPGGSLRLSCAASGFTFSTYWMYWVRQAPGKGLEWVSTIDTGGSDTYYADSVKGRFTISRDNVKNTLYLQMDNLKPEDTALYYCGSSRDIVIVTTLRDFDYWGQGTQVTVFS
notes: also called αEspA-6; JYE-2 (vector name); not shown: thioredoxin, N-terminal, kept; E-tag, C-terminal, kept
B26: JYB-H4 (VHH)
VHH: SGGGLVQPGGSLRLSCAASGVTLEYYAIGWFRQVPGKEREGVSCISTSGAGTNYADSVKGRFTISKDNAKNTVYLQMNSLKPEDTAVYYCAARDFTEVPIGGCEWEYDYWGQGTQVTVSS
notes: also called αEspA-8; JYE-4 (vector name); not shown: thioredoxin, N-terminal, kept; E-tag, C-terminal, kept
B27: JWT-C1 (VHH)
VHH: SGGLVQPGGSLRLSCAASGFTLANSAIGWFRQAPGKGREAVSCISTSAGTTNYASSVKGRFTTARDNAKNMAYLQMDNLKSGDTGVYECAAGWSIDCSGYILPAADVWGQGTQVTVSS
notes: also called αInt-13; JWZ-7 (vector name)

In the first assay the target is T1, EPEC Tir (enteropathogenic E. coli (EPEC), UniProt B7UM99).
T1 construct: also called GST-tagged EPEC Tir; recombinant his-tagged Tir
The assay is described as follows: ELISA; capture dilution ELISA; plate coated with 5 μg/mL of a non-competing VHH (no thioredoxin, no E-tag), antigen at 1 μg/mL captured for 1 h at 37°C (S1 Fig c-d: EPEC Tir, REPEC Tir); thioredoxin/VHH/E-tag from 125 nM in 1:5 serial dilutions; HRP anti-E-tag; EC50 estimates (apparent affinity); trace = EC50 >125 nM. As to conditions: both partners purified.
Regarding B1, the EC50 is 5000 pM.
With B2, the EC50 is 10000 pM.
Same read-out and setting: next, B3: 200 pM; B4: 200 pM; B5: 200 pM.
The same measure, in the same setting: under B6 stands 100 pM; under B7, 200 pM.
On the same count and under the same terms, under B8 stands 200 pM; under B9, 25000 pM.
Regarding B10, the EC50 was 50000 pM.
Still for that read-out and setting: next, B11: 200 pM; B12: 200 pM; B13: 200 pM.
Same read-out and setting: under B14 stands 500 pM.

The target in the next assay is EPEC flagella (Escherichia coli O127:H6 E2348/69 (EPEC), UniProt B7USU2). The assay is described as follows: ELISA; dilution ELISA; purified antigen coated directly on Nunc Maxisorp wells, typically 1 μg/mL in PBS overnight at 4°C, blocked with 4% milk in PBS 0.1% Tween; thioredoxin/VHH/E-tag from 125 nM in 1:5 serial dilutions, 1 h 37°C; detected with HRP anti-E-tag; EC50 estimates (apparent affinity); Trace = EC50 >125 nM, poor but detectable. As to conditions: both partners purified.
As to B15, the EC50 is 100 pM.
Same read-out and setting: under B16 stands 10000 pM; under B17, 200 pM.

Another assay deals with C. rodentium EspA (Citrobacter rodentium ICC168 (parent of …, UniProt D2TKE3)). The description is as above. As to conditions: both partners purified.
For B18, the EC50 was 700 pM.
Regarding B19, the EC50 is 700 pM.
Still for that read-out and setting: next, B20: 300 pM; B21: 700 pM.
Still for that read-out and setting: under B22 stands 300 pM; under B23, 3000 pM; under B24, 700 pM.
The same measure, in the same setting: next, B25: 700 pM.
B26: the EC50 is 500 pM.

The target in another assay is T2, EHEC intimin (Escherichia coli O157:H7 EDL933 (EHEC), UniProt P43261).
T2 construct: also called recombinant intimin (EHEC)
The description is as above. As to conditions: both partners purified.
Regarding B27, the half-maximal effective concentration (EC50) was 500 pM.

A word on the EC50: it is the concentration that produces a half-maximal response.
